# Values quoted from earlier work in PMC5257200.
# Target: His19 (UniProt position 19, ILSALHFMAWT)
# Conditions: Membrane-bound peptide
substance,measurement,value
Influenza B virus M2 protein peptide BM2(3–33) (Influenza B virus (strain not stated for this construct)),pKa,~6.5
